Reference: article PMC4903074 (Molecular cell, 2015)

B1: His6-ATG8f (natural protein, Arabidopsis thaliana, UniProt Q8VYK7 1-117, looked up)
chain: MAKSSFKQEHDLEKRRAEAARIREKYPDRIPVIVEKAEKSDIPTIDKKKYLVPADLTVGQFVYVIRKRIKLSAEKAIFIFVDNVLPPAGALMSSVYEEKKDDDGFLYVTYSGENTFG
B2: His6-ATG8e (natural protein, Arabidopsis thaliana, UniProt Q8S926 1-118, looked up)
chain: MNKGSIFKMDNDFEKRKAEAGRIREKYPDRIPVIVEKAEKSEVPNIDKKKYLVPSDLTVGQFVYVIRKRIKLSAEKAIFIFVDNVLPPTGELMSSVYEDKKDEDGFLYITYSGENTFG

Tests used:
[1] = molecular target: T1, GST-RPN10 (residues 201–386), wild type (Arabidopsis thaliana, UniProt P55034 201-386); assay: pull-down
T1 sequence (looked up): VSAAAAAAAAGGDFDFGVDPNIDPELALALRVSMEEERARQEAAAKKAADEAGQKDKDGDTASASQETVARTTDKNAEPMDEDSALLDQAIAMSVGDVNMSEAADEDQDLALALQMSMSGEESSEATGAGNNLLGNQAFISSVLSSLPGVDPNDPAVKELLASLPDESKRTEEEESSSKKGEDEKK

[2] = molecular target: T1, GST-RPN10 (residues 201–386), wild type; assay: pull-down; remark: listed apart in the source

Binder	binding result [1]	Kd [2]
B1	binds	
B2		~5.6 µM
